Six molecules from article PMC5291076, “Analyzing native membrane protein assembly in nanodiscs by combined non-covalent mass spectrometry and synthetic biology” (eLife, 2017) can be followed below.

In data set [1] the target is Proteorhodopsin (green variant). The experiment in a line: native MS; LILBID-MS of PR synthesized in the presence of DH7PC and GDN and purified with 0.1% DH7PC; no nanodiscs.
The target is the same in data set [2]. The experiment in a line: native MS; LILBID-MS of the membrane protein in MSP1E3D1 (DMPG) nanodiscs; 50 mM ammonium acetate pH 6.8; anionic mode; laser pulse energy between 9.5 and 23 mJ; unlabeled and (KcsA) 15N, 2H labeled samples.
Data set [3] concerns the molecule itself. Described as above.
Data set [4] deals with the molecule itself. The experiment in a line: native MS; LILBID-MS of hHv1-VSD in nanodiscs of MSP1D1ΔH5 (19.49 kDa, His6-tag cleaved); unlabeled and 15N, 2H labeled samples.

For orientation: stoichiometry N means a count of units in the complex or per binding partner. For “Proteorhodopsin (green variant) (natural protein)”, the values for the stoichiometry N in data set [1] and in data set [2] were 2 and under 6, respectively.

B1: Multidrug transporter EmrE (natural protein)
chain: MNPYIYLGGAILAEVIGTTLMKFSEGFTRLWPSVGTIICYCASFWLLAQTLAYIPTGIAYAIWSGVGIVLISLLSWGFFGQRLDLPAIIGMMLICAGVLIINLLSRSTPH
notes: small multidrug transporter EmrE; theoretical mass of the construct 13.00 kDa; source: cell-free (CECF, E. coli A19 lysate), co-translationally inserted into nanodiscs, purified (Streptactin)
As to B1, the “stoichiometry N” value in data set [3] is 2.

B2: Phospho-N-acetylmuramyl-pentapeptide-transferase E.coli (enzyme, E. coli, UniProt P0A6W3 1-360, looked up)
chain: MLVWLAEHLVKYYSGFNVFSYLTFRAIVSLLTALFISLWMGPRMIAHLQKLSFGQVVRNDGPESHFSKRGTPTMGGIMILTAIVISVLLWAYPSNPYVWCVLVVLVGYGVIGFVDDYRKVVRKDTKGLIARWKYFWMSVIALGVAFALYLAGKDTPATQLVVPFFKDVMPQLGLFYILLAYFVIVGTGNAVNLTDGLDGLAIMPTVFVAGGFALVAWATGNMNFASYLHIPYLRHAGELVIVCTAIVGAGLGFLWFNTYPAQVFMGDVGSLALGGALGIIAVLLRQEFLLVIMGGVFVVETLSVILQVGSFKLRGQRIFRMAPIHHHYELKGWPEPRVIVRFWIISLMLVLIGLATLKVR
notes: MraY translocase of E. coli; theoretical mass of the construct 42.22 kDa; Dimer in DMPG and in DMPC/DMPG nanodiscs, monomer in DMPC nanodiscs; also called Ec-MraY; E. coli MraY; source: cell-free (CECF, E. coli A19 lysate), co-translationally inserted into nanodiscs, purified (Streptactin)
As to B2, the “stoichiometry N” value in data set [3] stood at 2.

B3: Phospho-N-acetylmuramyl-pentapeptide-transferase B.subtilis (enzyme, B. subtilis, UniProt Q03521 1-324, looked up)
chain: MLEQVILFTILMGFLISVLLSPILIPFLRRLKFGQSIREEGPKSHQKKSGTPTMGGVMIILSIIVTTIVMTQKFSEISPEMVLLLFVTLGYGLLGFLDDYIKVVMKRNLGLTSKQKLIGQIIIAVVFYAVYHYYNFATDIRIPGTDLSFDLGWAYFILVLFMLVGGSNAVNLTDGLDGLLSGTAAIAFGAFAILAWNQSQYDVAIFSVAVVGAVLGFLVFNAHPAKVFMGDTGSLALGGAIVTIAILTKLEILLVIIGGVFVIETLSVILQVISFKTTGKRIFKMSPLHHHYELVGWSEWRVVVTFWAAGLLLAVLGIYIEVWL
notes: MraY translocase of B. subtilis; theoretical mass of the construct 37.88 kDa; also called Bs-MraY; B. subtilis MraY; source: cell-free (CECF, E. coli A19 lysate), co-translationally inserted into nanodiscs, purified (Streptactin)
Regarding B3, in data set [3], the “stoichiometry N” value is 2.

B4: pH-gated potassium channel KcsA (natural protein)
chain: SALHWRAAGAATVLLVIVLLAGSYLAVLAERGAPGAQLITYPRALWWSVETATTVGYGDLYPVTLWGRLVAVVVMVAGITSFGLVTAALATWFVGREQERRGHFVRHSEKAAEEAYTRTTRALHERFDRLERMLDDNRR
modifications: in some samples uniformly 15N, 2H isotope labeled
notes: pH-gated potassium channel KcsA; theoretical mass of the construct 21.33 kDa (22.70 kDa labeled); The printed mass (21.33 kDa) is larger than the natural chain, so tags or extra residues beyond the StrepII tag may be present; source: cell-free (CECF, E. coli A19 lysate), co-translationally inserted into nanodiscs, purified (Streptactin)
Regarding B4, the “stoichiometry N” value in data set [3] turned out to be 4.

B5: Human proton channel - voltage sensing domain (domain or fragment, UniProt Q96D96 75-223, looked up)
chain: APAPGPAPRAPLDFRGMLRKLFSSHRFQVIIICLVVLDALLVLAELILDLKIIQPDKNNYAAMVFHYMSITILVFFMMEIIFKLFVFRLEFFHHKFEILDAVVVVVSFILDIVLLFQEHQFEALGLLILLRLWRVARIINGIIISVKTR
modifications: in some samples uniformly 15N, 2H isotope labeled
notes: voltage-sensing domain of the human proton channel Hv1, residues 75-223; lacks the intracellular domain; theoretical mass of the construct 20.80 kDa; Construct in pET15b described in Li et al., 2015; a C-terminal StrepII tag was added here by QuickChange mutagenesis; also called hHv1-VSD; hHv-1-VSD
On to B5, for which the “stoichiometry N” value in data set [4] was found to be 2.
